Reference: paper PMC5469797 (2017)

Assays:
[1] = target: T1, full-length murine urokinase-type plasminogen activator (muPA) (murine, UniProt P06869 21-433); experiment: SPR
[2] = target: T2, catalytic serine protease domain of murine urokinase-type plasminogen activator (muPA), Gly2-Gly244, C122A (murine); experiment: SPR
[3] = target: T3, catalytic domain of muPA (Gly2-Gly244, C122A) inhibited at the active site with Glu-Gly-Arg-chloromethylketone (murine, irreversible active site binding ligand Glu-Gly-Arg-chloromethylketone (EGR-cmk) in the active site); experiment: SPR; EGR-cmk inhibited
T3 sequence (chain, as listed by the source C122A): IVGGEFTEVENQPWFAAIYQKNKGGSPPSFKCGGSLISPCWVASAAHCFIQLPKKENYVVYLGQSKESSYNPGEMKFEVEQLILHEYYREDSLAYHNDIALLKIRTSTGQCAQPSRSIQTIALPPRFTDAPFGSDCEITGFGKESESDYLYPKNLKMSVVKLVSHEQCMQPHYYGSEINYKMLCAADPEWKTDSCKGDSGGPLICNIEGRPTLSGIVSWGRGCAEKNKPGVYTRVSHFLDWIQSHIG

[4] = target: T4, full-length muPA inhibited at the active site with Glu-Gly-Arg-chloromethylketone (murine, UniProt P06869 21-433, irreversible active site binding ligand Glu-Gly-Arg-chloromethylketone (EGR-cmk) in the active site); experiment: SPR; EGR-cmk inhibited
T4 sequence (P06869 21-433): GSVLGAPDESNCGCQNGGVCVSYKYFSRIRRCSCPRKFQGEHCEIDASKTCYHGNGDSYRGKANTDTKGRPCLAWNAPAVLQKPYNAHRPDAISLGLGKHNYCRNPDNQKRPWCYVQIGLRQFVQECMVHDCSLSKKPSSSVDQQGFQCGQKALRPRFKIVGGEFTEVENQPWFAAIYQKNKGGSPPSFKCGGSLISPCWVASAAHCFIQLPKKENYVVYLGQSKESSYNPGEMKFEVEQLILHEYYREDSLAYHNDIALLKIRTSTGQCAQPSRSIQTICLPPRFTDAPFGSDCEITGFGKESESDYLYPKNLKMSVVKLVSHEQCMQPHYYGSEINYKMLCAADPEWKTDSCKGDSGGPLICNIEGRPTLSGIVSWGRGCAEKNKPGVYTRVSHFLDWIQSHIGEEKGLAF

[5] = target: T1, full-length murine urokinase-type …; experiment: SPR; remark: listed apart in the source
[6] = target: T2, catalytic serine protease domain of …; experiment: SPR; remark: listed apart in the source
[7] = target: T3, catalytic domain of muPA (Gly2-Gly244, …); experiment: SPR; EGR-cmk inhibited; remark: listed apart in the source
[8] = target: T4, full-length muPA inhibited at the …; experiment: SPR; EGR-cmk inhibited; remark: listed apart in the source

T2 sequence (chain, as listed by the source C122A): as the sequence (chain, as listed by the source C122A) above
T1 sequence (P06869 21-433): as the sequence (P06869 21-433) above

Kd [1]: 7.5 nM
Kd [2]: 11.2 nM
Kd [3]: 16.7 nM
Kd [4]: 19.3 nM
koff [5]: 0.00054 s⁻¹
koff [6]: 0.0011 s⁻¹
koff [7]: 0.00101 s⁻¹
koff [8]: 0.00084 s⁻¹
B1: anti-muPA allosteric nanobody Nb7 (VHH)
VHH: QVQLQESGGGLVQPGGSLRLSCAASGFTLGYYAIGWFRRAPGKEREGVSCISSSGGSTNYADSVKGRFTISRDNAKNTVDLQMNSLKPEDTAIYYCAAEWVPPGYGATVQALCNNAGYGMEYWGKGTQVTVSS
